Test results from the supplement of paper PMC9112550, “Optimization of the antimicrobial peptide Bac7 by deep mutational scanning” (BMC Biology, 2022).

Tested on: Escherichia coli TOP10
Assay: shrunken log2 fold change of peptide-encoding DNA abundance (4.5 h post-induction vs induction); higher = less antimicrobial activity (less host growth inhibition)
Details: time post-induction: 4.5 h; library: site-saturation at positions 5, 18, 19, 20
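Also: peptides expressed intracellularly from a pBAD plasmid library in pooled LB shake-flask culture, induced with 0.3% L-arabinose, DNA abundance read by NGS, three biological replicates, DESeq2 with apeglm shrinkage.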

Sequence | shrunken log2 fold change
RRIRLRPPRLPRPRPRPIDRPRP | -0.241
RRIRLRPPRLPRPRPRPIECPRP | 0.0614
RRIRLRPPRLPRPRPRPIEFPRP | -0.449
RRIRLRPPRLPRPRPRPIHTPRP | -0.133
RRIRLRPPRLPRPRPRPIHWPRP | 0.143
RRIRLRPPRLPRPRPRPIIAPRP | -0.0536
RRIRLRPPRLPRPRPRPIKHPRP | -0.821
RRIRLRPPRLPRPRPRPIKKPRP | 0.0365
RRIRLRPPRLPRPRPRPIKMPRP | -0.347
RRIRLRPPRLPRPRPRPIKNPRP | -0.317
RRIRLRPPRLPRPRPRPILLPRP | -0.235
RRIRLRPPRLPRPRPRPIMNPRP | -0.381
RRIRLRPPRLPRPRPRPINFPRP | -0.426
RRIRLRPPRLPRPRPRPINYPRP | -0.857
RRIRLRPPRLPRPRPRPIPDPRP | 0.00718
RRIRLRPPRLPRPRPRPIPMPRP | 0.0494
RRIRLRPPRLPRPRPRPIRRPRP | 0.0431
RRIRLRPPRLPRPRPRPISDPRP | -0.014
RRIRLRPPRLPRPRPRPISNPRP | -0.17
RRIRLRPPRLPRPRPRPIWDPRP | -0.0847

Sequence | shrunken log2 fold change
RRIRLRPPRLPRPRPRPIWIPRP | -0.134
RRIRLRPPRLPRPRPRPIYDPRP | -1
RRIRLRPPRLPRPRPRPIYFPRP | -0.37
RRIRLRPPRLPRPRPRPKAAPRP | 0.679
RRIRLRPPRLPRPRPRPKCQPRP | -0.319
RRIRLRPPRLPRPRPRPKEQPRP | 0.0445
RRIRLRPPRLPRPRPRPKEVPRP | -0.147
RRIRLRPPRLPRPRPRPKFEPRP | 0.0662
RRIRLRPPRLPRPRPRPKKYPRP | -0.143
RRIRLRPPRLPRPRPRPKMDPRP | -0.428
RRIRLRPPRLPRPRPRPKMMPRP | -0.167
RRIRLRPPRLPRPRPRPKNEPRP | -0.198
RRIRLRPPRLPRPRPRPKQEPRP | -0.00888
RRIRLRPPRLPRPRPRPKSNPRP | -0.172
RRIRLRPPRLPRPRPRPKTLPRP | -0.0582
RRIRLRPPRLPRPRPRPKTPPRP | 0.526
RRIRLRPPRLPRPRPRPKVRPRP | 0.316
RRIRLRPPRLPRPRPRPKVSPRP | 0.0482
RRIRLRPPRLPRPRPRPKWEPRP | -0.00197
RRIRLRPPRLPRPRPRPKWPPRP | 0.279

Sequence | shrunken log2 fold change
RRIRLRPPRLPRPRPRPKYEPRP | -0.0397
RRIRLRPPRLPRPRPRPKYQPRP | -0.141
RRIRLRPPRLPRPRPRPLCEPRP | 0.0911
RRIRLRPPRLPRPRPRPLEFPRP | -0.252
RRIRLRPPRLPRPRPRPLEHPRP | 0.0313
RRIRLRPPRLPRPRPRPLFVPRP | -0.329
RRIRLRPPRLPRPRPRPLINPRP | -0.519
RRIRLRPPRLPRPRPRPLMCPRP | -0.422
RRIRLRPPRLPRPRPRPLNIPRP | -0.221
RRIRLRPPRLPRPRPRPLNKPRP | -0.264
RRIRLRPPRLPRPRPRPLNVPRP | 0.0831
RRIRLRPPRLPRPRPRPLPHPRP | -0.309
RRIRLRPPRLPRPRPRPLPQPRP | 0.0529
RRIRLRPPRLPRPRPRPLPYPRP | 0.514
RRIRLRPPRLPRPRPRPLQFPRP | 0.0239
RRIRLRPPRLPRPRPRPLSFPRP | -0.15
RRIRLRPPRLPRPRPRPLTPPRP | 0.62
RRIRLRPPRLPRPRPRPLTYPRP | -0.448
RRIRLRPPRLPRPRPRPLVEPRP | 0.222
RRIRLRPPRLPRPRPRPLVSPRP | 0.0156
